In the supplement of paper PMC10567573:

B1: ANKRD9 (parent)
chain: VGAAGSARQELLGDRPRWQRLLGE

Variants of: B1
Assay: protein stability index of a GFP-peptide fusion (GPS, HEK-293T) (PSI 1-6); higher = more stable
Conditions: c terminus: a fixed tail appended
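Note: lentivirally expressed fusions sorted by FACS into six bins by GFP to DsRed ratio, PSI derived from sequencing read proportions per bin multiplied by bin number.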

Variant | protein stability index
VGACGSARQELLGDRPRWQRLLGE [A4C] | 2.09
VGAKGSARQELLGDRPRWQRLLGE [A4K] | 2.11
VGAEGSARQELLGDRPRWQRLLGE [A4E] | 2.91
VGALGSARQELLGDRPRWQRLLGE [A4L] | 3.18
VGAIGSARQELLGDRPRWQRLLGE [A4I] | 2.84
VGAFGSARQELLGDRPRWQRLLGE [A4F] | 2.44
VGAVGSARQELLGDRPRWQRLLGE [A4V] | 2.92
VGARGSARQELLGDRPRWQRLLGE [A4R] | 3.02
VGAYGSARQELLGDRPRWQRLLGE [A4Y] | 2.08
VGAQGSARQELLGDRPRWQRLLGE [A4Q] | 4.11
VGATGSARQELLGDRPRWQRLLGE [A4T] | 4.35
VGAMGSARQELLGDRPRWQRLLGE [A4M] | 3.1
VGADGSARQELLGDRPRWQRLLGE [A4D] | 3.35
VGASGSARQELLGDRPRWQRLLGE [A4S] | 3.24
VGAGGSARQELLGDRPRWQRLLGE [A4G] | 1.81
VGAPGSARQELLGDRPRWQRLLGE [A4P] | 3.39
VGAWGSARQELLGDRPRWQRLLGE [A4W] | 2.62
TGAAGSARQELLGDRPRWQRLLGE [V1T] | 3.38
YGAAGSARQELLGDRPRWQRLLGE [V1Y] | 2.56
VGAAGSARQELKGDRPRWQRLLGE [L12K] | 3.95
VGAAGSARQELDGDRPRWQRLLGE [L12D] | 4.17
VGAAGSARQELFGDRPRWQRLLGE [L12F] | 2.57
VGAAGSARQELNGDRPRWQRLLGE [L12N] | 3.43
VGAAGSARQELAGDRPRWQRLLGE [L12A] | 3.64

Variant | protein stability index
VGAAGSARQELEGDRPRWQRLLGE [L12E] | 3.7
VGAAGSARQELIGDRPRWQRLLGE [L12I] | 4.09
VGAAGSARQELGGDRPRWQRLLGE [L12G] | 3.79
VGAAGSARQELHGDRPRWQRLLGE [L12H] | 3.6
VGAAGSARQELMGDRPRWQRLLGE [L12M] | 3.43
VPAAGSARQELLGDRPRWQRLLGE [G2P] | 3.11
VTAAGSARQELLGDRPRWQRLLGE [G2T] | 3.06
VHAAGSARQELLGDRPRWQRLLGE [G2H] | 2.56
VCAAGSARQELLGDRPRWQRLLGE [G2C] | 2.24
VLAAGSARQELLGDRPRWQRLLGE [G2L] | 2.71
VEAAGSARQELLGDRPRWQRLLGE [G2E] | 3.29
VRAAGSARQELLGDRPRWQRLLGE [G2R] | 4.84
VSAAGSARQELLGDRPRWQRLLGE [G2S] | 3.39
VWAAGSARQELLGDRPRWQRLLGE [G2W] | 2
VMAAGSARQELLGDRPRWQRLLGE [G2M] | 2.69
VIAAGSARQELLGDRPRWQRLLGE [G2I] | 2.67
VNAAGSARQELLGDRPRWQRLLGE [G2N] | 3.82
VYAAGSARQELLGDRPRWQRLLGE [G2Y] | 2.24
VVAAGSARQELLGDRPRWQRLLGE [G2V] | 2.33
VFAAGSARQELLGDRPRWQRLLGE [G2F] | 2.57
VQAAGSARQELLGDRPRWQRLLGE [G2Q] | 4.06
VDAAGSARQELLGDRPRWQRLLGE [G2D] | 3.32
VAAAGSARQELLGDRPRWQRLLGE [G2A] | 3.23
VGAAGLARQELLGDRPRWQRLLGE [S6L] | 2.49

Variant | protein stability index
VGAAGGARQELLGDRPRWQRLLGE [S6G] | 2.85
VGAAGEARQELLGDRPRWQRLLGE [S6E] | 3.88
VGAAGYARQELLGDRPRWQRLLGE [S6Y] | 2.73
VGAAGFARQELLGDRPRWQRLLGE [S6F] | 2.85
VGAAGTARQELLGDRPRWQRLLGE [S6T] | 3.01
VGAAGDARQELLGDRPRWQRLLGE [S6D] | 3.8
VGAAGHARQELLGDRPRWQRLLGE [S6H] | 2.88
VGAAGCARQELLGDRPRWQRLLGE [S6C] | 1.21
VGAAGAARQELLGDRPRWQRLLGE [S6A] | 2.6
VGAAGNARQELLGDRPRWQRLLGE [S6N] | 3.77
VGAAGMARQELLGDRPRWQRLLGE [S6M] | 3.65
VGAAGKARQELLGDRPRWQRLLGE [S6K] | 2.72
VGAAGIARQELLGDRPRWQRLLGE [S6I] | 2.27
VGAAGVARQELLGDRPRWQRLLGE [S6V] | 2.86
VGAAGRARQELLGDRPRWQRLLGE [S6R] | 2.62
VGAAGSARQENLGDRPRWQRLLGE [L11N] | 3.71
VGAAGSARQETLGDRPRWQRLLGE [L11T] | 3.6
VGAAGSARQEVLGDRPRWQRLLGE [L11V] | 3.98
VGAAGSARQEPLGDRPRWQRLLGE [L11P] | 3.86
VGAAGSARQECLGDRPRWQRLLGE [L11C] | 3.22
VGAAGSARQEILGDRPRWQRLLGE [L11I] | 3.3
VGAAGSARQEMLGDRPRWQRLLGE [L11M] | 3.77
VGAAGSARQEQLGDRPRWQRLLGE [L11Q] | 3.8
VGAAGSARQEELGDRPRWQRLLGE [L11E] | 4.13

Variant | protein stability index
VGAAGSARQEYLGDRPRWQRLLGE [L11Y] | 3.5
VGAAGSARQERLGDRPRWQRLLGE [L11R] | 2.48
VGAAGSARQEWLGDRPRWQRLLGE [L11W] | 2.61
VGAAGSARQEFLGDRPRWQRLLGE [L11F] | 4.5
VGAAGSARQESLGDRPRWQRLLGE [L11S] | 4.02
VGAAGSARQEHLGDRPRWQRLLGE [L11H] | 2.85
VGAAGSARQEGLGDRPRWQRLLGE [L11G] | 3.43
VGAAGSARQEKLGDRPRWQRLLGE [L11K] | 3.69
VGAAGSARFELLGDRPRWQRLLGE [Q9F] | 2.81
VGAAGSARMELLGDRPRWQRLLGE [Q9M] | 3
VGAAGSARSELLGDRPRWQRLLGE [Q9S] | 3.46
VGAAGSARAELLGDRPRWQRLLGE [Q9A] | 3.37
VGAAGSARCELLGDRPRWQRLLGE [Q9C] | 2.56
VGAAGSARHELLGDRPRWQRLLGE [Q9H] | 3.38
VGAAGSARNELLGDRPRWQRLLGE [Q9N] | 2.74
VGAAGSAREELLGDRPRWQRLLGE [Q9E] | 2.11
VGAAGSARVELLGDRPRWQRLLGE [Q9V] | 3.14
VGAAGSARTELLGDRPRWQRLLGE [Q9T] | 3.13
VGAAGSARRELLGDRPRWQRLLGE [Q9R] | 3.04
VGAAGSARYELLGDRPRWQRLLGE [Q9Y] | 2.27
VGAAGSARIELLGDRPRWQRLLGE [Q9I] | 2.96
VGAAGSARDELLGDRPRWQRLLGE [Q9D] | 3.7
